Source: patent publication US20240141025A1 (PROTHENA BIOSCIENCES, published 2024)
Residue numbers refer to the chain shown, from its start. Like-named read-outs stand apart in the source and are kept apart here. Each block holds one binder with its values, some of them ahead of it.

Legend:
[1] = target: T1, recombinant human TTR F87M/L110M (human, UniProt P02766 21-147); test: SPR (Biacore), mAb captured on anti-human chip, TTR F87M/L110M as analyte
[2] = target: T1, recombinant human TTR F87M/L110M; test: as above; remark: listed apart in the source

Kd [1]: 1.24 nM
koff [1]: 0.000318 s⁻¹
kon [1]: 252000 M⁻¹ s⁻¹
B4: Hu14G8 H2L3 (antibody, human IgG1, kappa, V domains shown)
VH: EVQLVESGGGLVQPGGSLKLSCAASGFTFSSYTMSWVRQTPEKRLELVAEINNSGDTTYYPDTVKGRFTISRDNAKNTLYLQMSSLKSEDTAMYYCARHYYYGGGYGGWFFDVWGQGTLVTVSS
VL: DIVMTQSPLSLPVTPGEPASISCRSSKSLLHSNGNTYLYWFLQKPGQSPQLLIYRVSNLASGVPSRFSGSGSGTDFTLKISRVEAEDVGVYYCMQHLEYPLTFGQGTKLEIKR
notes: also called humanized 14G8 VHv2/VLv3

Kd [1]: 2.1 nM
koff [1]: 0.000683 s⁻¹
kon [1]: 326000 M⁻¹ s⁻¹
B5: Hu14G8 H2L2 (antibody, human IgG1, kappa, V domains shown)
VH: B4 VH
VL: B4 VL with S26N, S65D
notes: also called humanized 14G8 VHv2/VLv2

Kd [1]: 1.76 nM
koff [1]: 0.000677 s⁻¹
kon [1]: 386000 M⁻¹ s⁻¹
B7: Hu14G8 H3L1 (antibody, human IgG1, kappa, V domains shown)
VH: B4 VH with S84N, K87R, S88A, M93V
VL: B4 VL with P8A, L9P, P18S, A19V, S26N, S65D, D75A
notes: also called humanized 14G8 VHv3/VLv1

The remaining lines, values behind:

B1: Hu14G8 H2L1 (antibody, human IgG1, kappa, V domains shown)
VH: B4 VH
VL: B4 VL with P8A, L9P, P18S, A19V, S26N, S65D, D75A
notes: also called humanized 14G8 VHv2/VLv1
Kd [1]: 2.26 nM
koff [1]: 0.000693 s⁻¹
kon [1]: 307000 M⁻¹ s⁻¹

B2: Hu9D5 H3L1 (antibody, human IgG1, kappa, V domains shown)
VH: EVQLVESGGGLVQPGGSLRLSCAASGFTFSSYTMSWVRQAPGKGLEWVSEISNSGDTTYYPDTVKGRFTFSRDNAKNSLYLQSNLLRAEDTAVYYCARHYYYGGGYGGWFFDVWGQGTTVTVSS
VL: B4 VL with S65D
notes: also called humanized 9D5 VHv3/VLv1
Kd [2]: 4.32 nM
koff [2]: 0.000657 s⁻¹
kon [2]: 152000 M⁻¹ s⁻¹

B3: Hu9D5 H2L5 (antibody, human IgG1, kappa, V domains shown)
VH: B2 VH with W47L, S49A
VL: B4 VL with P8A, L9P, P18S, A19V, K44R, D75A, K79R
notes: also called humanized 9D5 VHv2/VLv5
Kd [2]: 6.84 nM
koff [2]: 0.000785 s⁻¹
kon [2]: 115000 M⁻¹ s⁻¹

B6: Hu9D5 H4L1 (antibody, human IgG1, kappa, V domains shown)
VH: B2 VH with F70I
VL: B4 VL with S65D
notes: also called humanized 9D5 VHv4/VLv1
Kd [2]: 2.09 nM
koff [2]: 0.000533 s⁻¹
kon [2]: 254000 M⁻¹ s⁻¹
